{
  "source": "paper PMC10821397",
  "about": "“A New Approach for Preparing Stable High-Concentration Peptide Nanoparticle Formulations” (Pharmaceuticals, 2023)",
  "type_in_all_cases": "physicochemical",
  "key": {"[1]": {"assay": "Nanomilling screen (resonant acoustic milling), particle size by dynamic light scattering", "settings": "DLS; for Average Radius: nanomilling screen, milled at 100 mg/mL in water, 50 G, 2 h, average of 10 acquisitions, 25 °C, ± SD; for % Pd: normalized polydispersity, screen, 100 mg/mL", "experimental": "A UV-Star clear, flat-bottom 96-well plate was used as a high-throughput mixing container, as described previously. […] Each well plate was sealed with a Thermo Fisher Scientific ALPS 50 V Manual Heat Sealer (Thermo Fisher Scientific Inc., Waltham, MA, USA). Each sealed well plate was then placed on a Resodyn LabRAM II Resonant Acoustic mixer (Resodyn Acoustic Mixers, Butte, MT, USA) and milled at 50 G acceleration for 2 h.\n(§1) After milling, a 5 μL aliquot of the nanosuspension sample was taken and diluted in 995 μL of D.I. water for analysis using a Wyatt DynaProTM Plate Reader II (Waters Corporation, Santa Barbara, CA, USA) dynamic light scattering instrument. A 30 μL aliquot of the diluted suspension was dispensed into a Corning® low-volume black polystyrene 384-well plate for analysis. The particle size of each sample was reported as an average of 10 acquisitions with an acquisition time of 5 s at 25 °C. Autocorrelation curves were fitted using either the cumulants or regularization method, and the average particle radius and diameters D50 and D90 were obtained and reported along with their standard deviations. The normalized polydispersity (%Pd) was calculated as the polydispersity divided by the estimated hydrodynamic radius from the cumulants fit of the autocorrelation function multiplied by 100."}, "[2]": {"assay": "Physical stability (monomer content) by size-exclusion chromatography", "settings": "both formulations (PVP K29-32/SDS, HPC-SL/SDS), 28 days, 4 °C, RT and 37 °C; no higher-order oligomers", "experimental": "An Agilent 1290 Infinity II (Agilent Technologies, Santa Clara, CA, USA) was used for chromatographic analysis. Data were acquired and processed using Empower 3 software (Waters, Milford, MA, USA). For all three peptides (GNE-A, cyclosporin A, and insulin), separations were performed in an Xbridge BEH125 SEC column ([…], 7.8 × 150 mm) for physical stability analysis. Isocratic method was applied in which 80% of the 5 mM phosphate buffer at pH 7 in acetonitrile was used as the mobile phase. The injection volume was 8 μL and the column temperature was 30 °C."}, "[3]": {"assay": "Particle size of nanosuspensions on storage (dynamic light scattering)", "settings": "DLS", "experimental": "as §1"}, "[4]": {"assay": "Scale-up nanosuspension, particle size by dynamic light scattering", "settings": "for % Pd: normalized polydispersity, scale-up; for % Pd / Average Radius: 100 mg/mL, DLS; for Average Radius: scale-up batch, average of 10 acquisitions, 25 °C, ± SD", "experimental": "A 4 mL clear glass vial was used as a scale-up container. […] The vial was then placed on a Resodyn LabRAM II Resonant Acoustic mixer and milled at 50 G acceleration for 2 h. The resulting nanosuspension was recovered by using a syringe equipped with an 18 G needle.\nas §1"}, "[5]": {"settings": "25% HPC-SL, 1% SDS (wt% to peptide)"}, "[6]": {"settings": "25% PVP K29-32, 1% SDS (wt% to peptide)"}, "[7]": {"settings": "25% Pluronic F127 (wt% to peptide)"}},
  "data": [
    {"substance": "Insulin (recombinant human) [Insulin Monomer]", "values": [
      {"measurement": "Average Radius", "setting": "[1]; [5]", "value": "130 ± 4", "unit": "nm"},
      {"measurement": "Average Radius", "setting": "[1]; [6]", "value": "112 ± 2", "unit": "nm"},
      {"measurement": "Average Radius", "setting": "[1]; [7]", "value": "419 ± 24", "unit": "nm"},
      {"measurement": "Average Radius", "setting": "[1]; 25% Tween 80 (wt% to peptide)", "value": "903 ± 124", "unit": "nm"},
      {"measurement": "% Pd", "setting": "[1]; [7]", "value": 14.6, "unit": "%"},
      {"measurement": "% Pd", "setting": "[1]; 25% Tween 80 (wt% to peptide)", "value": "Multimodal"},
      {"measurement": "insulin monomer concentration (SEC)", "setting": "[2]", "value": "remains quantitative"},
      {"measurement": "particle size on storage", "setting": "[3]; insulin nanosuspension with HPC-SL/SDS, 4 °C and room temperature, up to 1 month", "value": "some particle growth"},
      {"measurement": "particle size on storage", "setting": "[3]; insulin nanosuspension with HPC-SL/SDS, 37 °C, up to 1 month", "value": "significant aggregation"},
      {"measurement": "particle size on storage", "setting": "[3]; insulin nanosuspension with PVP K29-32/SDS, 28 days at 4 °C or room temperature", "value": "No significant particle size growth"},
      {"measurement": "particle size on storage", "setting": "[3]; insulin nanosuspension with PVP K29-32/SDS, up to a month at 37 °C", "value": "remained in the accepted nano-scale range"},
      {"measurement": "average radius of the nanoparticles", "setting": "[4]; both formulations (HPC-SL/SDS and PVP K29-32/SDS), screen and scale-up batch", "value": "110–130 nm"},
      {"measurement": "% Pd", "setting": "[4]; [5]", "value": 33.6, "unit": "%"},
      {"measurement": "% Pd", "setting": "[4]; [6]", "value": 19.9, "unit": "%"},
      {"measurement": "Average Radius", "setting": "[4]; [5]", "value": "135 ± 14", "unit": "nm"},
      {"measurement": "Average Radius", "setting": "[4]; [6]", "value": "121 ± 5", "unit": "nm"}
    ]}
  ]
}
